Experimental data reported in publication PMC10881513 (Nature Communications, 2024).

Target: ASFV RNA polymerase subunit vRPB3-11 (African swine fever virus, strain BA71V, UniProt Q65184 1-359)
Test: cryo-EM structure
Details: both partners purified

ASFV RNA polymerase subunit vRPB3-11, sequence (Q65184 whole entry): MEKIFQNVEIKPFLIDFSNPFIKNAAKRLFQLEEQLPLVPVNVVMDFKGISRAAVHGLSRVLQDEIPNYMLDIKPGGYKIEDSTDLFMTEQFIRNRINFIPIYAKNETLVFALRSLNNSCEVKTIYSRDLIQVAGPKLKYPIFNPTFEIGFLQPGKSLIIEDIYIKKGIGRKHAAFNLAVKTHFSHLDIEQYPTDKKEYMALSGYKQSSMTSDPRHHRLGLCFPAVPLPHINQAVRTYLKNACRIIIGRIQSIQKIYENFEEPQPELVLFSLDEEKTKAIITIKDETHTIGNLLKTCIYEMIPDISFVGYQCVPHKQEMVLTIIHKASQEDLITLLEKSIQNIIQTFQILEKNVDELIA

B1: ASFV RNA polymerase subunit vRPB10 (natural protein)
chain: MLIPVVCFTCGFPIGTYAAIFDKARTEYIKTKMDGTLPQNIPLDASLQIELKDLITALGIPMRVCCRTHLITTLDYRKYY
- binding result: binds
